Assays:
[1] = target: endogenous Protein Kinase A catalytic subunit (PKA-Cα) of COS-1 cells; assay: co-immunoprecipitation (IP: V5 antibody), western blot band intensity quantified with ImageJ; conditions: COS-1 cells expressing GRTH-V5, parent: est. 1.1, read off a plot
[2] = target: endogenous Protein Kinase A catalytic subunit (PKA-Cα) of COS-1 cells; assay: co-immunoprecipitation (IP: PKA-Cα antibody), western blot band intensity quantified with ImageJ; conditions: COS-1 cells expressing GRTH-V5, parent: est. 1.1, read off a plot

Substance	response (Arbitrary units) [1]	response (Arbitrary units) [2]
Gonadotropin Regulated Testicular Helicase (GRTH/DDX25), wild type, V5-His tagged (from UniProt Q9UHL0) E165A	0.88	0.88
Gonadotropin Regulated Testicular Helicase (GRTH/DDX25), wild type, V5-His tagged (from UniProt Q9UHL0) E165A; K240A	0.68	0.76
Gonadotropin Regulated Testicular Helicase (GRTH/DDX25), wild type, V5-His tagged (from UniProt Q9UHL0) T239A	0.34	0.34
